# Where “and” joins values, the source holds several entries; their conditions need not be identical. Equal values may be shown once.
# Key:
# [1] = biological target: batCOV5-N3 [change] (residues 391-427 of batCOV5 N protein) fused to C-terminal GFP-His10 (Pipistrellus bat coronavirus HKU5); experiment: MST; settings: both partners purified
# [2] = biological target: batCOV5-N3 [change] (residues 391-427 of batCOV5 N protein) fused to C-terminal GFP-His10 (Pipistrellus bat coronavirus HKU5); experiment: MST; settings: both partners purified; remark: listed apart in the source
# [3] = biological target: batCOV5-N3 [change] (residues 391-427 of batCOV5 N protein) fused to C-terminal GFP-His10 (Pipistrellus bat coronavirus HKU5); experiment: MST; settings: both partners purified; remark: listed apart in the source
# [4] = biological target: batCOV5-N3 [change] (residues 391-427 of batCOV5 N protein) fused to C-terminal GFP-His10 (Pipistrellus bat coronavirus HKU5); experiment: MST; settings: both partners purified; remark: listed apart in the source
# [5] = biological target: the molecule itself; experiment: cross-linking
# [6] = biological target: batCOV5-N3 (residues 391-427) with C-terminal GFP-His10 (MST) (Pipistrellus bat coronavirus HKU5, UniProt A3EXD7 391-427); experiment: MST; settings: both partners purified
Binder,Kd [1] [µM],Kd [2] [µM],Kd [3] [µM],Kd [4] [µM],stoichiometry N [5],Kd [6] [µM]
"M protein of Pipistrellus bat coronavirus HKU5 (batCOV5-M), wild type (natural protein) MASSNVTLSNDEVLRLVKDWNFTWSVVFLLITIVLQYGYPSRSMFVYVIKMFVLWLLWPASMALSIFCAVYPIDLASQIISGILAATSCAMWISYFVQSIRLFMRTGSWWSFNPESNCLLNVPIGGTTVVRPLVEDSTSVTAVVTDGYLKMAGMHFGACDFQRLPSEVTVAKPNVLIALKMIKRQAYGTNSGVAIYHRYKAGNYRRPPIIQDQELALLRA",1.9,3.07,3.5,4.83,4 and 6,
"batCOV5-M, M protein of Pipistrellus bat coronavirus HKU5, affinity- and SEC-purified (cross-linking, MST) (natural protein) MASSNVTLSNDEVLRLVKDWNFTWSVVFLLITIVLQYGYPSRSMFVYVIKMFVLWLLWPASMALSIFCAVYPIDLASQIISGILAATSCAMWISYFVQSIRLFMRTGSWWSFNPESNCLLNVPIGGTTVVRPLVEDSTSVTAVVTDGYLKMAGMHFGACDFQRLPSEVTVAKPNVLIALKMIKRQAYGTNSGVAIYHRYKAGNYRRPPIIQDQELALLRA",,,,,,0.77
